This assay deals with T1, PRDX1 (peroxiredoxin 1), endogenous in TM3 cells (mouse (endogenous in TM3)), P35700.
T1 chain: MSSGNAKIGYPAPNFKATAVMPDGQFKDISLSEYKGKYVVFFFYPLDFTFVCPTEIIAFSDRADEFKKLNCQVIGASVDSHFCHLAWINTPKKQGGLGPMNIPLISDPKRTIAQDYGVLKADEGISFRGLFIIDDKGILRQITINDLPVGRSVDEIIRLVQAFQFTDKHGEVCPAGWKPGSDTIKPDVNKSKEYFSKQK
Kind of assay: SDS-PAGE under DTT-free conditions with western blot. The conditions noted are these: remark: other sources report otherwise. In general terms: In western blotting, separated proteins are transferred to a membrane and probed.

B1: PRDX1 (peroxiredoxin 1), endogenous in TM3 cells, P35700 1-199 (enzyme)
chain: T1 chain
As for B1, the stoichiometry N worked out at 2.

Usually stoichiometry N stands for a count of units in the complex or per binding partner.
